Data published in patent publication US6586946B2, “System and method for detecting and identifying molecular events in a test sample using a resonant test structure” (Signature BioScience, Inc., priority 2000, dated 2003).

assay: Resonant frequency shift of coaxial resonator coupled to protein solution versus PBS buffer (S11 return loss); assay type: physicochemical; conditions: protein solution in PTFE tube; reference PBS pH 7.4; input test signal approximately 1 GHz, 100 KHz band
Description: Using the systems and methods of the present invention, several experiments were performed to detect and identify molecular events in a solution. […] The vector network analyzer used was model number HP 8714 manufactured by Agilent Technologies, Inc. (Palo Alto, Calif.) The computer is an HP Vectra computer (Hewlett Packard Company, Palo Alto, Calif.) executing a graphically user interface (LabView® platform) to control the operation of the network analyzer and to display the resulting data. The coaxial resonator 122 illustrated in FIG. 3A was used in the experiments to illuminate the reference and test samples. […] The PTFE tube 470 is used to transport the reference and test samples to the detection region of the resonant test assembly and measures 0.031″ I.D., 0.063″ O.D., wall 0.016″ in cross-section dimensions.
The proteins used for the experiment included bovine serum albumin (BSA), ribonuclease (rnase), urease, myoglobin, fibrinogen (type I-S, bovine), chicken lysozyme (egg white), and turkey lysozyme. Phosphate buffer solution (PBS, pH 7.4) was purchased from Sigma (St. Louis, Mo.) and used as the reference sample.
In the reference measurement, PBS buffer was introduced into the tube and transported to the detection region, and a S11 (return loss) measurement of the resonator was taken. In the illustrated example, the measurement was taken at 1 GHz over a 100 KHz band. From the measured S11 response, the resonant frequency fres and Q-factor of the resonator were computed and stored, as described above.
Next, each of the aforementioned protein solutions were introduced into the tube and transported to the detection region. The resonator's S11 response was measured (over the same frequency range as above) and the corresponding resonant frequency fres and Q-factor parameters derived therefrom. Subsequently, the difference in the resonant frequencies Δfres is computed. This quantity was subsequently plotted versus the resonator's measured Q-factor when electromagnetically coupled to the test sample. FIG. 6 illustrates this mapping.

Molecule | change in resonant frequency of the resonator (relative to the PBS buffer)
chicken lysozyme | ~6.5 KHz
fibrinogen | approximately 1.75 KHz
myoglobin | ~4 KHz
urease | ~2 KHz
turkey lysozyme (protein, UniProt P00703 19-147, looked up, test protein) Lysozyme C: KVYGRCELAAAMKRLGLDNYRGYSLGNWVCAAKFESNFNTHATNRNTDGSTDYGILQINSRWWCNDGRTPGSKNLCNIPCSALLSSDITASVNCAKKIASGGNGMNAWVAWRNRCKGTDVHAWIRGCRL | ~6.75 KHz
